From US20100183614A1 (COVALENT BIOSCIENCE, published 2010)

Target: gp120 of HIV strain 97ZA009 (clade C, R5) (HIV-1 strain 97ZA009)
Experiment: cell-based or functional assay

B1: scFv JL427 (scFv)
scFv: QSVLTQPPSVSGAPGQRVTISCSGSSSNFGLNYVYWYQHFPGTAPKLLIYRNDQRPLGVPARFSGSKSGTSASLAISGLRSEDEADYYCQSYDNSLSGWVFGGGTQLTVLGSSGGGGSGGGGSGGSALQVQLQQSGGGLVQPGRSLRLSCAASGFTFSSYGMHWVRQAPGKGLEWVSYIGRSGSHTNYADSVKGRFTISRDNSKNTLYLQINSLRAEDTAVYYCARGLPNYGMDIWGQGTTVTVSSGSASAPTLFPAAAHHHHHHGAAEQKLISEEDLNGAA
- HIV neutralization IC50, ng/mL (97ZA009, PBMC): 300 ng/mL
